Experimental data from patent US20220154156A1, “PROTEINS AND METHODS FOR DISRUPTING BACTERIAL COMMUNICATION” (REGENTS OF THE UNIVERSITY OF MINNESOTA, priority 2019, published 2022).

Columns and labels:
[1] = test system: corrosion tubercles on steel coupons; assay: Dose-response of lactonase for inhibiting biocorrosion, 7 weeks
Protocol: Five treatments with lactonase enzyme and two controls of the steel coupons were investigated for enzyme activity and corrosion rate. Each treatment or control contained three replicate steel coupons. They were exposed in lake water in lab microcosm for a period of 7 weeks. Lactonase enzyme silica gel coated testing coupon are prepared as described before, except the coupons were dipped and dried twice and covered with 2 layers of the same coating to ensure the intactness of the coating. The enzyme concentrations used in this experiment were 100, 200, 500, 1000 μg/ml. Also 100 μg/ml equivalent activity lactonase raw extract was tested to compare the effectiveness of raw enzyme extract to the purified lactonase enzyme.
After 7 weeks of exposure, coupons were retrieved and analyzed. The coupons in each treatment was photographed by the end of the experiment. Biocorrosion was evaluated by quantities and coverage of corrosion tubercle. Surface roughness measurement were also made with procedure described above.

[2] = test system: complex soil microbial community; assay: Biofilm quantification in flow-through recirculating bioreactor; assay type: cell-based; settings: over 21 days
Protocol: After overnight induction (18° C., 0.2% L-Arabinose, 200 RPM shaking), cells overexpressing proteins were centrifuged (4,400×g, 20 min, 4° C.) and re-suspended in 100 mM potassium phosphate buffer, pH 7, at a concentration of 0.4 g/mL wet weight (0.2 g/mL for the 1× lactonase beads). Gel beads (1 mm diameter) containing the lactonase/control bacteria cultures were made using a dripping method while gelation occurred, using a method similar to a previously used protocol^41 400 mg PEG (average molecular weight, 10,000 Da) was mixed with 4 mL acetic acid (0.01M) until the PEG dissolved. […]
The flow-through system used in this study consisted of three 3-liter tanks set up in parallel. […] Each tank contained three liters of 15× diluted LB media in water and a pre-broken 96-stripwell plate was submerged to the bottom (so that individual wells could be harvested for either biofilm quantification or DNA extraction). […]
Inside each of the tanks sat two submerged 96-stripwell plates. […] Individual wells were extracted in triplicate for crystal violet biofilm quantification (OD550 nm) using a similar protocol as previously described^13. […] To quantify biofilm, the remaining crystal violet stained to the wells was solubilized with 125 μL of 30% acetic acid and this solution was read on a spectrophotometer at 550 nm. […]

[3] = test system: Xanthomonas translucens pv. translucens LMG876; assay: Barley leaf infection; assay type: in vivo; settings: single spraying of 1 mL, 10 mg/mL
Protocol: (§1) FIG. 30A-30F show control of plant infections by a single spraying of 1 mL of lactonase solution (10 mg/mL) on plant leaves and crop. (A) and (B) Soft rot potato assay.
(§2) Specifically, we could establish infection systems for corn, wheat, and barley plants, and a crop infection system for potato (tubers and leaves).

soil bacterial community = assay: Different lactonases on soil microbial community (Example 8); assay type: cell-based; settings: 7 days, vs inactive SsoPox 5A8
Protocol: Principal component analysis (PCA) based on deep bacterial 16S rDNA sequences (Illumina V4 region).
The same experiments as described above were performed on the same soil microbial community but with two different lactonases, GcL, and Ssopox W263I. These enzymes differ primarily by their substrate specificity. […] This is important because different bacteria use different AHLs to communicate. Indeed, The structure of AHLs vary a lot with respect to the length of N-acyl chains (from C4 to C18), the hydroxyl or oxo group of the acyl chain and the saturated or unsaturated state of the carbon chain^1. The hydrophobicity of AHLs relates to their passive diffusion through membranes. […] In fact, regulatory circuits may be interconnected, like in P. aeruginosa^6, and allow for compensatory responses: if the LasI/LasR system is inactivated, the RhlI/RhlR system can still control LasI/LasR-spectific functions^7.

[4] = test system: Xanthomonas translucens pv. undulosa LMG892; assay: Wheat leaf infection; assay type: in vivo; settings: single spraying of 1 mL, 10 mg/mL
Protocol: as §1, §2

[5] = 25° C., purified protein sample; cited from earlier work
[6] = all concentrations 100-1000 μg/ml, 7 weeks, p<0.05

B1: SsoPox W263I: improved variant of the hyperthermostable lactonase SsoPox from Sulfolobus solfataricus, exhibiting higher catalytic rates (protein, UniProt Q97VT7 1-314, looked up, variant W263I)
Aryldialkylphosphatase: MRIPLVGKDSIESKDIGFTLIHEHLRVFSEAVRQQWPHLYNEDEEFRNAVNEVKRAMQFGVKTIVDPTVMGLGRDIRFMEKVVKATGINLVAGTGIYIYIDLPFYFLNRSIDEIADLFIHDIKEGIQGTLNKAGFVKIAADEPGITKDVEKVIRAAAIANKETKVPIITHSNAHNNTGLEQQRILTEEGVDPGKILIGHLGDTDNIDYIKKIADKGSFIGLDRYGLDLFLPVDKRNETTLRLIKDGYSDKIMISHDYCCTIDIGTAKPEYKPKLAPRWSITLIFEDTIPFLKRNGVNEEVIATIFKENPKKFFS
- reduction of number of corrosion tubercles [1, 6]: > 38%
- reduction of percent coverage of corrosion tubercles [1, 6]: > 41%
- reduction of surface roughness ([1]; all treatments): not statistically significant
- optimal concentration for coating application ([1]; highest reduction of corrosion tubercles): 200 µg/mL
- reduction of biofilm formation [2]: 2 fold
- leaf spots on barley leaves [3]: Absence of leaf spots
- planktonic microbial community composition (soil bacterial community): induce differential planktonic microbial community biases
- leaf spots on wheat leaves [4]: Absence of leaf spots
- time remaining stable [5]: > 300 days
